Drawing on patent US20220380442A1 (published 2022), this text covers EC50 for five molecules.

By EC50 is commonly meant the concentration that produces a half-maximal response. Low values mean a more potent agent, high ones a less potent agent.

To fix the notation:
B1: ANDV-59 (antibody, V domains shown)
VH: QVVLQESGPGLVKPSETLSLTCTVSGGSINNYYWSWIRQPPGKGLEWIGWLYYSGITTFNPSLKSRVTISIDTSKNQVSLNLRSVTAADTAVYYCARVQGSDSSGYYHLKSDWFDPWGQGIPVTVSS
VL: QSVLTQPPSVSAAPGQTVTISCSGSSSNIRHNFVSWYQQLPGTAPKLVIYENNKRPSGIPDRFSGSKSGTSATLGITGLQTGDEADYYCGTWDSSLSAPHWVFGGGTRLTVL
B2: ANDV-69 (antibody, V domains shown)
VH: QVHLQESGPGLVKPSETLSLTCAVSGYSISSGYCWGWIRQTPGKGLEWIGSIWHTGTTYYNPSLKSRVTISLDTSKNQFSLKLSSLTAADTAVYYCARAIYDSSGYSPFSGLDIWGQGTTVTISS
VL: QSVLTQPPSVSAAPGQKVTISCSGSSSNIGNNYVSWYQQVPGTAPKLLFYDNNKRPSGIPYRFSGSKSGTSATLAITGLQTGDEADYYCGTWDSSLNLWVFGGGTKLTVL
B3: ANDV-5 (antibody, V domains shown)
VH: QVQLLQSGAEVKKPGSSVRVSCQSSGDIYNYYGISWVRQAPGQGLEWMGGIIPVYGRPNYVQKFRGRVTFTVDKSTSTAYMELSTLRADDTAVYYCARDTARSHYFGSGNDYGMDVWGQGTTVIVSS
VL: DIVMTQSPLSLPVTPGEPASISCRSSQSLLHSNGFNFVDWYLQKPGQSPQLLIYLGSTRASGVPDRFSGSGSGTDFTLEISRVEAEDVGVYYCMQALQFPRTFGQGTKLDIK
B4: ANDV-2 (antibody, V domains shown)
VH: QVTLKESGPALVKPTQTLTLTCTFSGFSLSTSGMRVSWIRQPPGKALEWLARIDWDDDKFYSTSLKTRLTISKDTSKNQVVLIMTNMDPVDTATYYCARMMVGEGTFDYWGQGTLVTVSS
VL: DIQMTQFPSTLSASVGDRVTITCRASQDISSLLAWYQQKPGKAPKLLIYTASNLEGGVPSRFSGSGSGTEFTLTISSLQPDDFATYYCQQYIRYWTFGQGTKVEIK
B5: ANDV-12 (antibody, V domains shown)
VH: EVQLVESGGGLVQPGGSLRLSCAASGFAFSSYWMTWVRQAPGKGLEFVANIKYDASEKYYVDSVKGRFTISRDNGRNSFYLQMNSLRAEDTAVYYCAVPGPGYSFAYDYWGQGTQVTVSS
VL: DIQMTQSPSSLSASVGDRITITCRASQSVGTYLNWYQQKPGKAPKLLIYEASSLQSGVPSRFSGSGSGTDFTLTISRLQPEDFATYSCQQSDIPPWTFGQGTKVEIK

The first assay has as its target T1, Puumala virus (PUUV) glycoproteins Gn and Gc displayed on Expi293F cells (full-length M segment, plasmid … (Puumala virus)).
T1 chain 1: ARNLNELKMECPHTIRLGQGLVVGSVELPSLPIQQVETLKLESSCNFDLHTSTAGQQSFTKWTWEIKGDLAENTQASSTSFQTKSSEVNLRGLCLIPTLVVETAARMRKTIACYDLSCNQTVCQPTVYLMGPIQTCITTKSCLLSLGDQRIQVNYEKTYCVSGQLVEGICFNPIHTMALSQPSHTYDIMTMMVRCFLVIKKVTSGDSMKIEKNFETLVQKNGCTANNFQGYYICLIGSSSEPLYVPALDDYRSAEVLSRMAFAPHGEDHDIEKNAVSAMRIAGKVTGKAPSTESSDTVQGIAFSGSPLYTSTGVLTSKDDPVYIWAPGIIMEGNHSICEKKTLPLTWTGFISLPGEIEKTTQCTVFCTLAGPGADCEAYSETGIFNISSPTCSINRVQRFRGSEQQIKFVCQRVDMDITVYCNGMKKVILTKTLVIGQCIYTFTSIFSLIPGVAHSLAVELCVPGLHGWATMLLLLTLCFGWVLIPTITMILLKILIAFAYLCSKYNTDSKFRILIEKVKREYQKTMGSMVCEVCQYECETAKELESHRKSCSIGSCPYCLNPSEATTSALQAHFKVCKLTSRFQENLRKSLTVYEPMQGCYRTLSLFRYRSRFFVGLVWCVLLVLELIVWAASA
T1 chain 2: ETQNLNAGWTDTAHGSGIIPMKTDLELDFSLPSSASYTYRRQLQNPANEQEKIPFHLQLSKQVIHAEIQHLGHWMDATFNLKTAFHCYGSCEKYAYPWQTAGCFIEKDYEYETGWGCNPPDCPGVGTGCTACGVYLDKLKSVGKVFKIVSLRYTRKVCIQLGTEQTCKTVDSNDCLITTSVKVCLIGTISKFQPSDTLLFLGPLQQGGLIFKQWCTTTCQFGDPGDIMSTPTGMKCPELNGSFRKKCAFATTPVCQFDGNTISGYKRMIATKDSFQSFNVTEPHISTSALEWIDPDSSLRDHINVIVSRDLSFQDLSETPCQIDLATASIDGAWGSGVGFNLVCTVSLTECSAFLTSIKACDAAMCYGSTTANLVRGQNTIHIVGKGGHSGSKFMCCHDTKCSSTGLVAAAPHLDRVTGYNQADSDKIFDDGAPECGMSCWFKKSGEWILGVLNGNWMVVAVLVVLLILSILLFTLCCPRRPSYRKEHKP
The assay is described as follows: flow.
Consider B1, for which the concentration for a half-maximal effect (EC50) turned out to be 0.123 µg/mL. Still for that read-out and setting: the same measure for B2: 0.541 µg/mL; for B3: 0.148 µg/mL.

In a further assay the target is Sin Nombre virus (SNV) glycoproteins Gn and Gc displayed on the surface of Expi293F cells transfected with … (Sin Nombre virus). The assay is described as follows: flow.
B4: the midpoint of the response, the EC50, lay at 0.011 µg/mL.

As for B1, the concentration giving a half-maximal response (EC50) came to 0.0093 µg/mL. B5 came in with an EC50 of 0.016 µg/mL.
